These results are taken from PMC12525004, “Bacillus subtilis DinG 3′⟶5′ Exo(ribo)nuclease: A Helpmate to Mitigate Replication Stress” (International Journal of Molecular Sciences, 2025).

T1: DinG (Bacillus subtilis, UniProt P54394 1-931)
T1 sequence: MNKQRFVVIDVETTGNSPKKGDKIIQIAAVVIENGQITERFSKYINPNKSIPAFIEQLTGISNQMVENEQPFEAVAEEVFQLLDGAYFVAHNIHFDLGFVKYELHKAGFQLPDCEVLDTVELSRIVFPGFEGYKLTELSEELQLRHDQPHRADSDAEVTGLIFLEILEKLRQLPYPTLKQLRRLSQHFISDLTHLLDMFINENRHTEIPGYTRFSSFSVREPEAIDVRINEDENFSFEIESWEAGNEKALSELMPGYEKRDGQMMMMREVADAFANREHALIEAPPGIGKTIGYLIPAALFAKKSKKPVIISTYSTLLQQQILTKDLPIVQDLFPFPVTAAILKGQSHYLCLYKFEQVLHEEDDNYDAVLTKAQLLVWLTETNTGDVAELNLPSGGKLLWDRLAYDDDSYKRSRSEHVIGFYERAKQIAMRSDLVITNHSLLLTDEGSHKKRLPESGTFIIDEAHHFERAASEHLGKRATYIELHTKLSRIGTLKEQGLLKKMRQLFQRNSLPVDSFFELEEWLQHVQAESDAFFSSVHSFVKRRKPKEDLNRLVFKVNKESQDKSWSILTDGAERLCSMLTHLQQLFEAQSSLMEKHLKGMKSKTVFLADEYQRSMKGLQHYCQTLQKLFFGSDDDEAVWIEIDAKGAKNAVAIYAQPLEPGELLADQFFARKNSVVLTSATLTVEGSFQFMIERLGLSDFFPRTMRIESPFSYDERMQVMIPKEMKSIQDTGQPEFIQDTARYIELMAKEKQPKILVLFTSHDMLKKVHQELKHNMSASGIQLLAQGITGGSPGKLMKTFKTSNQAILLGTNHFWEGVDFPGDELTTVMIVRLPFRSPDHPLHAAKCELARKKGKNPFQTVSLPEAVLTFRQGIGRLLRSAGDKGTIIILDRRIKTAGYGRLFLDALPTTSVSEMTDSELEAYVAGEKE

T2: DinG K290A (B. subtilis, UniProt P54394 1-931, K290A)
T2 construct: DinG, Bacillus subtilis, 931 aa, with codon 290 (Lys, Walker A box) replaced by Ala; cloned into pET3a (pCB1260); also called ATPase-deficient DinG; source: E. coli BL21(DE3) [pLysS] carrying pCB1260, purified by the same protocol as wt DinG
T2 sequence (looked up): T1 sequence with K290A

T3: DinG D10A E12A (B. subtilis, UniProt P54394 1-931, D10A | E12A)
T3 construct: DinG, Bacillus subtilis, 931 aa, with codons 10 (Asp) and 12 (Glu) replaced by Ala; cloned into pET3a (pCB1259); also called exonuclease-deficient DinG; ExoI-deficient DinG variant; source: E. coli BL21(DE3) [pLysS] carrying pCB1259, purified by the same protocol as wt DinG
T3 sequence (looked up): T1 sequence with D10A, E12A

B1: RnhC (enzyme, B. subtilis, UniProt P94541 1-313, looked up)
chain: MSHSVIKVSLSAIDQMKMTYSGSLTASVPQGAVFQAKPPGCTITAYQSGKVLFQGKNAAAESARWGTAEPQEKKKTAKKPADPRYAPPADIAGMSVIGSDEVGTGDYFGPMTVVCAYVDKTMLPLMKELGVKDSKDLKDPQIIEIARNLIKTIPYSLLVLKNEKYNSMQEKGMSQGKMKALLHNQAITHLLRKLDGVKPEAILIDQFAEPGVYFNHLKGRDIVKERTYFSTKAEGIHLAVAAASIIARYSFLMEMDKLSRAAGMTLPKGAGPHVDEAAAKLILKKGASALRTFTKLHFANTQKAQRLADKKRS
notes: RnhC (RNase HIII), Bacillus subtilis; rnhC gene cloned into NdeI-linearised pET21b (pCB1242); also called RNase HIII; RnhC-His; source: E. coli BL21(DE3) [pLysS] carrying pCB1242 (rnhC-His), purified (Ni2+ His-Trap)
B2: RecA (natural protein, B. subtilis, UniProt P16971 1-348, looked up)
chain: MSDRQAALDMALKQIEKQFGKGSIMKLGEKTDTRISTVPSGSLALDTALGIGGYPRGRIIEVYGPESSGKTTVALHAIAEVQQQGGQAAFIDAEHALDPVYAQKLGVNIEELLLSQPDTGEQALEIAEALVRSGAVDIVVVDSVAALVPKAEIEGDMGDSHVGLQARLMSQALRKLSGAINKSKTIAIFINQIREKVGVMFGNPETTPGGRALKFYSSVRLEVRRAEQLKQGNDVMGNKTKIKVVKNKVAPPFRTAEVDIMYGEGISKEGEIIDLGTELDIVQKSGSWYSYEEERLGQGRENAKQFLKENKDIMLMIQEQIREHYGLDNNGVVQQQAEETQEELEFEE
notes: RecA recombinase, Bacillus subtilis; overproduced from plasmid pBT61 in B. subtilis BG214; also called recombinase RecA

The series “RecA” concerns the target B2. As to the kind of experiment: far-Western, overlay or dot blot; immuno-dot blot: proteins (75-300 ng) spotted on nitrocellulose, blocked with 5% skimmed milk in PBS, incubated 6 h at 4 °C with 200 ng/ml RecA in PBS, 0.5% skimmed milk powder, 0.1% Triton X-100; washed; retained RecA detected with polyclonal anti-RecA antibody. As to conditions: both partners purified.

The target in series [1] is T1, DinG. As to the kind of experiment: EMSA; 3 mM Mg2+; substrate degraded during assay; Kapp; EMSA, buffer D (composition not in material; 3 mM MgCl2, or 2 mM EDTA instead), 0.5 nM DNA, 37 °C, 10 min (text: 5 min), 15% native PAGE in TBE 1X; pH and salt. As to conditions: protein: recombinant; tags: none stated (pET3a, untagged); label: 5'-32P; single strand. On the technique in general: In EMSA bound probe runs differently from free probe, usually more slowly.

Series [2] addresses T1, DinG. As to the kind of experiment: EMSA; 2 mM EDTA, no metal; Kapp; text names lssDNA38, Methods and Fig S4 legend give lssDNA45; EMSA, buffer D (composition not in material; 3 mM MgCl2, or 2 mM EDTA instead), 0.5 nM DNA, 37 °C, 10 min (text: 5 min), 15% native PAGE in TBE 1X; pH and salt. As to conditions: protein: recombinant; tags: none stated (pET3a, untagged); label: 5'-32P; single strand.

A further series has as its target T2, DinG K290A. Kind of series: far-Western, overlay or dot blot; immuno-dot blot: proteins (75-300 ng) spotted on nitrocellulose, blocked with 5% skimmed milk in PBS, incubated 6 h at 4 °C with 200 ng/ml RecA in PBS, 0.5% skimmed milk powder, 0.1% Triton X-100; washed; retained RecA detected with polyclonal anti-RecA antibody. The following applies: both partners purified.

For a further series, the target named is T3, DinG D10A E12A. The description is as above. The following applies: both partners purified.

Where a chain is given by its changes, count along the chain named. Bounds are passed on as bounds.

Consider B1, for which the binding result with RecA is given as “binds”.

GTACGTATTCAAGATACCTCGTACTCTGTACTGACTCGGATCCTA (ssDNA, biotin-T at position 44 (second from 3' end)) [3'-Biotin gamma32P-lssDNA45]: the “apparent K (half saturation)” value is less than 0.08 nM in the series with DinG [1] and roughly 0.7 nM with DinG [2]. B2: the binding result with DinG K290A and with DinG D10A E12A was “binds” each time.
